Experimental data as given in patent publication US20050260627A1, “Mannosidases and methods for using same” (University of Victoria Innovation and Development …, priority 1999, published 2005).

Assays:
[1] = tested on: A. nidulans α-1,2-mannosidase IB; test: Effect of EDTA, calcium and deoxymannojirimycin on enzyme activity; type: biochemical, Aspergillus nidulans; conditions: for effect of addition on enzyme activity: added to purified α-1,2-mannosidase IB
Description: (§1) FIG. 8: Biochemical characterization of purified A. nidulans α-1,2-mannosidase IB (A) and α-1,2-mannosidase IC (B) enzymes. Enzyme activity was assayed by digestion of the synthetic substrate Man-α1,2-Man-OCH3 at 37 °C for 3 hours. Released mannose was detected using a colorimetric glucose oxidase/horseradish peroxidase assay (see Materials and Methods) and measuring absorbance at […].
(§2) The α-mannosidase IB and IC expression vectors were introduced into the genome of A. nidulans strain T580 (ura-) by cotransformation and complementation with the pJR15 vector, which contained the selectable ura marker. It has been shown that when two plasmids are used simultaneously in the transformation of fungal protoplasts (cotransformation), as many as 60% of transformed protoplasts will integrate both of the plasmids into the genome (Wernars et al. 1987, Mol. Gen. Genet., 209: 71-77). Protoplasts were prepared according to the method of Fincham (1989, Microbiol. Rev., 53: 148-170), using Sigma Lysing Enzyme for cell wall digestion. Protoplasts of strain T580 (uridine auxotroph) were co-transformed with 1 μg of the selectable marker pJR15, which converts transformed cells to uridine prototrophy, and with 1 μg of either ANIBSEC or ANICSEC. Transformants were initially screened for integration of […] by selection on minimal media, and positive transformants were then transferred to individual complete media plates. Transformants were selected for prototrophy on uridine deficient minimal media and transferred to complete media plates. To confirm secretion of active recombinant α-1,2-mannosidase IB or IC into the culture media of putative transformants, specific activity assays were performed. After 60-65 hours of incubation, aliquots of culture media were assayed for α-1,2-mannosidase activity and compared to the non-transformed T580 strain. Total culture filtrate protein was precipitated and resuspended in assay buffer. Mannosidase assays were performed using the disaccharide Man-α-1,2-Man-OCH3 as a substrate in a coupled enzyme assay as described earlier (Scaman et al. 1996, Glycobiol., 6: 265-270), with some modifications. Digestion of the substrate was performed in a 30 μl final volume containing 10 mM sodium acetate/acetic acid buffer (pH 5.0) and 3 μl 100 mM disaccharide Man-α-1,2-Man-OCH3 incubated at 37° C. for 3 hours. Released mannose was detected by addition of 30 μl 1.25M Tris-HCl (pH7.6) and 240 μl of developing solution, containing glucose oxidase (55 U/ml), horseradish peroxidase (1 U/ml) and o-dianisidine dihydrochloride (70 μg/ml) followed by incubation at 37° C. for 3 hours. Absorbance measurements at 450 nm were used to determine final color change. A standard curve of free mannose concentrations was determined for comparison.

[2] = tested on: A. nidulans α-1,2-mannosidase IC; test: as above; type: biochemical, Aspergillus nidulans; conditions: for effect of addition on enzyme activity: added to purified α-1,2-mannosidase IC
Description: as §1, §2

[3] = α-1,2-mannosidase specific activity assay of secreted recombinant enzymes (coupled enzyme assay); type: biochemical; conditions: purified enzyme; for optimal pH for highest activity: FIG. 8; for specific activity: non-limiting amounts of Man-α-1,2-Man-OCH3, 1 U = 1 nmol mannose per hour
Description: as §1
as §2, with “Digestion of the substrate was performed in a 30 μl final volume containing 10 mM sodium acetate/acetic acid buffer (pH 5.0) and 3 μl 100 mM disaccharide Man-α-1,2-Man-OCH3 incubated at 37° C. for 3 hours.” left out, “comparison. […] Protein concentrations were determined by the Bradford method (Bradford 1976, Anal. Biochem., 72: 248-254) and comparison to a bovine serum albumin (BSA) standard curve. […]” for “comparison.”

[4] = Digestion of Man9GlcNAc2, cleavage products by MALDI-TOF mass spectrometry; type: biochemical; conditions: for cleavage of Man9GlcNAc2 (substrate specificity): non-limiting conditions, about 100 ng enzyme, 10 pmol Man9GlcNAc2
Description: FIG. 9: Partial digestion of Man9GlcNAc2 (M9) with A. nidulans α-1,2-mannosidase IB (A) and A. nidulans α-1,2-mannosidase IC (B) by MALDI-TOF mass spectrometry. Peaks represent parent molecules ionized with sodium (M+Na+). Several different digestion products are produced in each reaction, including Man8GlcNAc2 (M8), Man7GlcNAc2 (M7), Man6GlcNAc2 (M6) and Man5GlcNAc2 (M5).
The substrate specificity of the α-1,2-mannosidase IB and IC from A. nidulans was determined by analyzing the cleavage products of Man9GlcNAc2 by MALDI-TOF mass spectrometry. Approximately 100 ng of either α-1,2-mannosidase IB or IC protein was used to digest 10 pmol of Man9GlcNAc2 (Sigma) in a final volume of 10 μl. Digestion products were analyzed by matrix assisted laser desorption ionization time of flight mass spectrometry (MALDI-TOF-MS) using a Voyager biospectrometry workstation (Applied Biosystems, Foster City Calif.). Samples were mixed in a 1:1 ratio with the matrix (10 mg/ml 2,5-dihydroxybenzoic acid; 50% acetonitrile) and 1 μl was loaded onto a sample plate for analysis. […] Accelerating voltage was 20000V and the grid voltage was set at 94%. Data were analyzed using Data Explorer software (Applied Biosystems, Foster City Calif.). […] This supports the classification of both the α-1,2-mannosidase IB and IC in subgroup 2.
The rate at which various intermediates were produced during the digestion of Man9GlcNAc2 to Man5GlcNAc2 was determined by analyzing the cleavage products during limited time-course experiments (FIG. 9). […] This led to the accumulation of Man7GlcNAc2 and Man6GlcNAc2 intermediates during the progress of the digestion, which were eventually converted to Man5GlcNAc2.

[5] = limited time-course experiments, FIG. 9

Molecule	effect of addition on enzyme activity [1]	effect of addition on enzyme activity [2]	optimal pH for highest activity [3]	specific activity [3]	rate of digestion of Man9GlcNAc2 to intermediates [4, 5]	cleavage of Man9GlcNAc2 (substrate specificity) [4]	further results
O=C(O)CN(CCN(CC(=O)O)CC(=O)O)CC(=O)O [EDTA]	significantly reduced enzyme activity	significantly reduced enzyme activity	–	–	–	–	–
[Ca+2] [calcium]	–	–	–	–	–	–	effect of addition on EDTA-reduced enzyme activity ([1]; added after EDTA, α-1,2-mannosidase IB): restored; effect of addition on EDTA-reduced enzyme activity ([2]; added after EDTA, α-1,2-mannosidase IC): restored
OC[C@H]1NC[C@@H](O)[C@@H](O)[C@@H]1O [deoxymannojirimycin]	significant decrease in activity	significant decrease in activity	–	–	–	–	–
α-1,2-mannosidase IB: Class I α-1,2-mannosidase from A. nidulans (mnsIB, SEQ ID NO: 6), expressed from vector ANIBSEC (protein, Aspergillus nidulans) MRTLLALAAFAGFAAARVPATAITRPVMRSDSRADAVKEAFSHAWDGTTNTAFPHDELHPISNGTGDSRNHWGASAVDALSTAIMMRNATIVNQILDHIAAVDTSKTNAMVSLFETTIRTLAGMISGTDLLKGPAAGLVDDSRVDVLLEQSQNLAEVLKFAFDTPSGVPTNMINITSGGNDGATTNGLAVTGTLVLEWTRLSDLTGNDETARLSQRAEDTLLHPEPAQTEPFPGLIGSAVNIADGKLANGHISWNGGADSTTETLIKMTVTDPERFGLTRDRWVAAAESSINHLASHPSTRPDVTFLATTNEEHQLGLTSQHLTCFDGGSFLLGGTLLDRQDFVDFGLDLVAGCHETTNSTLTGIGPEQFSWDPNGVPDSQKELFERAGFTINSGQTILRPEVIESFTTAWRVTGDGTTLEWVWNAFTNINKTCRTATGFAGLENVNAANGGGRIDNQESFMFAEVLKTSFLTFAPEDDWQVQKGSGNTFVTNTEAHPFKVTTPQ	–	–	5.0	7.52 U/μg	rapidly degraded Man9GlcNAc2 to Man7GlcNAc2	cleaved Man9GlcNAc2 completely and efficiently to a Man5GlcNAc2 structure	–
α-1,2-mannosidase IC: Class I α-1,2-mannosidase from A. nidulans (mnsIC, SEQ ID NO: 18), expressed from vector ANICSEC (protein, Aspergillus nidulans) MPRRWSSLISITAIFLVLFFLLHRNTDTPRAANRATNGPANGFARQQSICPSTPPQPPYNRTSTGGFNWGEIPVRYPVSDFIPLSTNSPATLPRIQRSSFPLQSSITKSRQAAVKGAFQRAWTSYTTHAWKADEVRPITAGSRNNFGGWGATLVDNLDTLLIMGLDEEFAAAVDALADIEFSPHSSPSSSQSTINIFETTIRYLGGLLAAYDLTGCRETRLLDKAIQLGEMIYTSFDTENRMPVPRWNLHKAGNGEPQRAAVQGVLAELASSSLEFTRLSQLTGDMRYFDAASRITDLLDSQAGHTRIPGLWPVSVNLQKGDLTRGSTFSFGGMADSAYEYLGKTYRLLGGVGKGPQYERLARNALDAGIRHLLFRPMTPDHADILLPGVAHATSSSVGLEPRTEHLACFVGGMYALAGKLFSNQTYLDTGRKLTDGCIWYYDNSPLGIMPEMFTVPACPSVAECPWDETRGGIYTYVRDGHYFLRPEAMESIFYMWRITGDEKYREAAWRMFTAIEAVTKTEFGNAAVRDVMVEEGNVKREDSMESFWMAETLKYLYLIFGETDLVSLDDWVFNTEAHPLRGAGS	–	–	5.0	4.56 U/µg	rapidly degraded Man9GlcNAc2 to Man7GlcNAc2	cleaved Man9GlcNAc2 completely and efficiently to a Man5GlcNAc2 structure	rate of conversion of Man7GlcNAc2 and Man6GlcNAc2 intermediates to Man5GlcNAc2 [4, 5]: more rapidly than the α-1,2-mannosidase IB enzyme
